Results taken from patent publication US20200377590A1 (Hoffmann-La Roche, published 2020).
Numbering of substitutions follows the chain as printed.

B1: CD81K13 HC 01-hVH_1_f / LC CD81K13 (antibody, V domains shown)
VH: EVQLVQSGAEVKKPGATVKISCKVSGYTFTDSYMHWVQQAPGKGLEWMGRIDTGNGNVKFDPKFQGRVTITADTSTDTAYMELSSLRSEDTAVYYCAPYGYGFHSWGQGTLVTVSS
VL: DIQMTQSPASLSVSVGETVTITCRASENIYRTLAWYLQKQGKSPQLLVYGATTLADGVPSRFSGSGSGTQYYLKINSLQSEDFGTYHCQHFWGTPWTFGGGTKVEIK
notes: human constant region
B2: CD81K13 HC 01-hVH_1_f / LC 06-hVK_1_39 (antibody, V domains shown)
VH: B1 VH
VL: DIQMTQSPSSLSASVGDRVTITCRASENIYRTLAWYQQKPGKAPKLLIYAATTLASGVPSRFSGSGSGTDFTLTISSLQPEDFGTYYCQHFWGTPWTFGQGTKVEIK
notes: human constant region
B3: CD81K13 HC 01-hVH_1_f / LC 07-hVK_1_27 (antibody, V domains shown)
VH: B1 VH
VL: B2 VL with A43V, F83V, H90K
notes: human constant region
B4: CD81K13 HC 01-hVH_1_f / LC 5b-hVK_1_39 (antibody, V domains shown)
VH: B1 VH
VL: B2 VL with A50G, S56D, G84A
notes: human constant region
B5: CD81K13 HC 01-hVH_1_f / LC 5b-hVK_1_39-GA (antibody, V domains shown)
VH: B1 VH
VL: B2 VL with A50G, S56D, G84A
notes: human constant region
B6: CD81K13 HC 01-hVH_1_f / LC 03-hVK_1_9 (antibody, V domains shown)
VH: B1 VH
VL: B2 VL with M4L, S10F, D70E, G84A
notes: human constant region
B7: CD81K13 HC 01-hVH_1_f / LC 05-hVK_1_39 (antibody, V domains shown)
VH: B1 VH
VL: B2 VL with G84A
notes: human constant region
B8: CD81K13 HC 01-hVH_1_f / LC 04-hVK_1_9 (antibody, V domains shown)
VH: B1 VH
VL: B2 VL with M4L, S10F, D70E
notes: human constant region
B9: CD81K13 HC CD81K13 / LC 1c-hVK_3_15 (antibody, V domains shown)
VH: EVRLHQSAAQLVQPGASVRLSCTTSGFNFKDSYLHWVKQRPAQGLEWIGRIDTGNGNVKFDPKFQDKATITTDIPSMTAYLHLSNLTSEDTAVYYCVPYGYGFHSWGDGTTLTVSS
VL: EIVMTQSPATLSVSPGERATLSCRASENIYRTLAWYQQKPGQAPRLLIYGATTLADGIPARFSGSGSGTEFTLTISSLQSEDFGVYYCQHFWGTPWTFGQGTKVEIK
notes: human constant region
B10: CD81K13 HC 01-hVH_1_f / LC 1b-hVK_3_15 (antibody, V domains shown)
VH: B1 VH
VL: B9 VL with G84A
notes: human constant region
B11: CD81K13 HC CD81K13 / LC 05-hVK_1_39 (antibody, V domains shown)
VH: B9 VH
VL: B2 VL with G84A
notes: human constant region
B12: CD81K13 HC 01-hVH_1_f / LC 1c-hVK_3_15 (antibody, V domains shown)
VH: B1 VH
VL: B9 VL
notes: human constant region
B13: CD81K13 HC 01-hVH_1_f / LC 01-hVK_3_15 (antibody, V domains shown)
VH: B1 VH
VL: B9 VL with L54R, D56T
notes: human constant region
B14: CD81K13 HC CD81K13 / LC 01-hVK_3_15 (antibody, V domains shown)
VH: B9 VH
VL: B9 VL with L54R, D56T
notes: human constant region
B15: CD81K13 HC CD81K13 / LC 04-hVK_1_9 (antibody, V domains shown)
VH: B9 VH
VL: B2 VL with M4L, S10F, D70E
notes: human constant region
B16: CD81K13 HC CD81K13 / LC 03-hVK_1_9 (antibody, V domains shown)
VH: B9 VH
VL: B2 VL with M4L, S10F, D70E, G84A
notes: human constant region
B17: CD81K13 HC CD81K13 / LC 5b-hVK_1_39 (antibody, V domains shown)
VH: B9 VH
VL: B2 VL with A50G, S56D, G84A
notes: human constant region
B18: CD81K13 HC CD81K13 / LC 5b-hVK_1_39-GA (antibody, V domains shown)
VH: B9 VH
VL: B2 VL with A50G, S56D, G84A
notes: human constant region
B19: CD81K13 HC CD81K13 / LC 06-hVK_1_39 (antibody, V domains shown)
VH: B9 VH
VL: B2 VL
notes: human constant region
B20: CD81K13 HC CD81K13 / LC 07-hVK_1_27 (antibody, V domains shown)
VH: B9 VH
VL: B2 VL with A43V, F83V, H90K
notes: human constant region
B21: CD81K13 HC CD81K13 / LC 1b-hVK_3_15 (antibody, V domains shown)
VH: B9 VH
VL: B9 VL with G84A
notes: human constant region
B22: CD81K04 HC GG-01-hVH_5_51 / LC GG-02-hVK_4_1 (antibody, V domains shown)
VH: EVQLVQSGAEVKKPGESLKISCKGSGYSFSSSWMNWVRQMPGKGLEWMGRIYSGDGDAIYSPSFQGQVTISADKSISTAYLQLSSLKASDTAMYYCAREGKTGDLLLRSWGQGTLVTVSS
VL: DIVMTQSPDSLAVSLGERATINCKSSKSVSTSIYSYMHWYQQKPGQPPKLLIYYASYRESGVPDRFSGSGSGTDFTLTISSLQAEDVAVYYCQHSREFPFTFGQGTKLEIK
notes: human constant region
B23: CD81K04 HC GG-01-hVH_5_51 / LC GG-05-hVK_3_11 (antibody, V domains shown)
VH: B22 VH
VL: EIVLTQSPATLSLSPGERATLSCRASKSVSTSIYSYLHWYQQKPGQAPRLLIYYASNRETGIPARFSGSGSGTDFTLTISSLEPEDFAVYYCQHSREFPFTFGQGTKLEIK
notes: human constant region
B24: CD81K04 HC GG-05-hVH_1_18 / LC JA_GG-10-hVK_4_1 (antibody, V domains shown)
VH: QVQLVQSGAEVKKPGASVKVSCKASGYTFSSSWMNWVRQAPGQGLEWMGRIYSGDGDAIYAQKLQGRVTMTTDTSTSTAYMELRSLRSDDTAVYYCAREGKTGDLLLRSWGQGTLVTVSS
VL: B22 VL with K24R, S25A, Y53K, R58L, Q93E
notes: human constant region
B25: CD81K04 HC GG-01-hVH_5_51 / LC JA_GG-07-hVK_7_3 (antibody, V domains shown)
VH: B22 VH
VL: DIVLTQSPASLAVSPGQRATITCRASKSVSTSIYSYMHWYQQKPGQPPKLLIKYASNKDTGVPARFSGSGSGTDFTLTINPVEANDAANYYCLHSREFPYTFGQGTKLEIK
notes: human constant region
B26: CD81K04 HC GG-01-hVH_5_51 / LC GG-06-hVK_1_39 (antibody, V domains shown)
VH: B22 VH
VL: DIQMTQSPSSLSASVGDRVTITCRASKSVSTSIYSYLNWYQQKPGKAPKLLIYYASYLQSGVPSRFSGSGSGTDFTLTISSLQPEDFATYYCQHSREFPYTFGQGTKLEIK
notes: human constant region
B27: CD81K04 HC GG-01-hVH_5_51 / LC JA_GG-09-hVK_4_1 (antibody, V domains shown)
VH: B22 VH
VL: B22 VL with Y53K, Y57T, Q93E
notes: human constant region
B28: CD81K04 HC GG-01-hVH_5_51 / LC GG-03-hVK_4_1 (antibody, V domains shown)
VH: B22 VH
VL: B22 VL with M37L, H38A
notes: human constant region
B29: CD81K04 HC GG-01-hVH_5_51 / LC JA_GG-08-hVK_4_1 (antibody, V domains shown)
VH: B22 VH
VL: B22 VL with Y53K, R58L, Q93E
notes: human constant region
B30: CD81K04 HC GG-01-hVH_5_51 / LC JA_GG-10-hVK_4_1 (antibody, V domains shown)
VH: B22 VH
VL: B22 VL with K24R, S25A, Y53K, R58L, Q93E
notes: human constant region
B31: CD81K04 HC GG-01-hVH_5_51 / LC GG-04-hVK_4_1 (antibody, V domains shown)
VH: B22 VH
VL: B22 VL with M37L, H38A, Y57T, F100Y
notes: human constant region
B32: CD81K04 HC CD81K04 / LC CD81K04 (antibody, V domains shown)
VH: QVQLQQSGPELVKPGASVKISCKASGYTFSSSWMNWVKQRPGKGLEWIGRIYSGDGDAIYNGKFKGKATLTADKSSSTAYMQLSSLTSEDSAVYFCAREGKTGDLLLRSWGQGSALTVSS
VL: DIVLTQSPASLSVSLGQRATISCRASKSVSTSIYSYMHWYQQKPGQPPKLLIKYASYLESGVPARFSGSGSGTDFTLNIHPVEEEDAATYYCEHSREFPFTFGTGTKLEIK
notes: human constant region; also called CD81K04 (chimeric form)
B33: CD81K04 HC CD81K04 / LC GG-02-hVK_4_1 (antibody, V domains shown)
VH: B32 VH
VL: B22 VL
notes: human constant region
B34: CD81K04 HC GG-01-hVH_5_51 / LC CD81K04 (antibody, V domains shown)
VH: B22 VH
VL: B32 VL
notes: human constant region
B35: CD81K04 HC CD81K04 / LC JA_GG-10-hVK_4_1 (antibody, V domains shown)
VH: B32 VH
VL: B22 VL with K24R, S25A, Y53K, R58L, Q93E
notes: human constant region
B36: CD81K04 HC GG-07-hVH_5_51 / LC CD81K04 (antibody, V domains shown)
VH: B22 VH with N35C, R50C
VL: B32 VL
notes: human constant region

What follows are binders tested against T1, CD81 (UniProt P60033 1-236, limits assumed) (assay: cell ELISA).
T1 construct: whole, on cells; also called CD81 receptor
T1 sequence (looked up): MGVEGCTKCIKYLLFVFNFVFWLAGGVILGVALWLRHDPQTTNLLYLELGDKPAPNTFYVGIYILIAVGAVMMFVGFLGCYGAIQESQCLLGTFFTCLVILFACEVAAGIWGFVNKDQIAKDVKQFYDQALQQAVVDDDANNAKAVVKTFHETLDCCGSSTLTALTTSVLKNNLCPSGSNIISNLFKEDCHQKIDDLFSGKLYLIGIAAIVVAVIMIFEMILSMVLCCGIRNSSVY
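Note: antibody binding to HuH7 cells expressing CD81 versus a CD81-negative HuH7 control line, bound antibody detected by secondary reagent, absorbance at 450 nm with 620 nm reference.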

| Binder | ELISA data |
| --- | --- |
| B1 | 0.272 |
| B2 | 0.822 |
| B3 | 0.086 |
| B4 | 0.89 |
| B5 | 0.848 |
| B6 | 0.294 |
| B7 | 0.458 |
| B8 | 0.244 |
| B9 | 0.95 |
| B10 | 0.392 |
| B11 | 0.886 |
| B12 | 0.617 |
| B13 | 0.527 |
| B14 | 1.01 |
| B15 | 0.851 |
| B16 | 0.949 |
| B17 | 0.594 |
| B18 | 0.751 |
| B19 | 0.811 |
| B20 | 0.199 |
| B21 | 0.86 |

Target: T1, CD81
Experiment: cell ELISA
Remark: another data set of the same source

| Binder | ELISA data |
| --- | --- |
| B22 | 0.081 |
| B23 | 0.073 |
| B24 | 0.841 |
| B25 | 0.061 |
| B26 | 0.089 |
| B27 | 0.148 |
| B28 | 0.129 |
| B29 | 0.164 |
| B30 | 0.064 |
| B31 | 0.186 |
| B32 | 1.14 |
| B33 | 0.785 |
| B34 | 0.082 |
| B35 | 1.06 |
| B36 | 0.233 |
